From patent US7534431

Target: carcinoembryonic antigen (CEA) (UniProt P06731)
Experiment: size-exclusion HPLC shift of radioiodinated bispecific conjugate in the presence of excess CEA

Chain of UniProt P06731 (P06731 35-685 limits assumed): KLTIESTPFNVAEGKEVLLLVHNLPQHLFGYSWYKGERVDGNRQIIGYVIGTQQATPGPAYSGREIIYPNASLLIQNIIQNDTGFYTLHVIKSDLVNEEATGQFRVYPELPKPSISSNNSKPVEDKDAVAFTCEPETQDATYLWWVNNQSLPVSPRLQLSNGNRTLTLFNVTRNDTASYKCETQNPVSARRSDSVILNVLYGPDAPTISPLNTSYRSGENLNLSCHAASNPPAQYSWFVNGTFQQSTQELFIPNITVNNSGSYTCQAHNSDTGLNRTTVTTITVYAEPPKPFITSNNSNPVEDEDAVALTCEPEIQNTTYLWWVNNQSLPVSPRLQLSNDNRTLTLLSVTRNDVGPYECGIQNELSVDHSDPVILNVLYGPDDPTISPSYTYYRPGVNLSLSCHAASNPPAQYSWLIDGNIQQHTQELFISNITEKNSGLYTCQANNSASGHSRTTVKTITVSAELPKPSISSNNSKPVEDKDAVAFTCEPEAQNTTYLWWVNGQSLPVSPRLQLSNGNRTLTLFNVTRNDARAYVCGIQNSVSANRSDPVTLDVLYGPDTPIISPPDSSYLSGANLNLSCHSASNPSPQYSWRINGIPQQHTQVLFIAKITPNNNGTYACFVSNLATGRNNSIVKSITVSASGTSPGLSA

immunoreactivity (fraction of radioiodinated sample shifted by excess CEA): > 85%
Substance: hMN-14×734 bispecific antibody (Fab' of humanized anti-CEA hMN-14 coupled to Fab' of murine anti-indium-DTPA 734)
